Article PMC5482573

Target: COPI coat leaf (one coatomer complex with two Arf1 molecules) assembled on vesicle membranes (M. musculus | S. cerevisiae) (UniProt Q8CIE6)
Test: cryo-EM structure; COPI coated vesicles with GTPγS incubated 15–20 min with a 10 molar excess of ArfGAP2; subtomogram averaging, difference map and classification; class with ArfGAP2 at 10.1 Å

Chain of R. norvegicus ArfGAP2, full-length, N-terminally His-tagged (Q3MID3 whole entry): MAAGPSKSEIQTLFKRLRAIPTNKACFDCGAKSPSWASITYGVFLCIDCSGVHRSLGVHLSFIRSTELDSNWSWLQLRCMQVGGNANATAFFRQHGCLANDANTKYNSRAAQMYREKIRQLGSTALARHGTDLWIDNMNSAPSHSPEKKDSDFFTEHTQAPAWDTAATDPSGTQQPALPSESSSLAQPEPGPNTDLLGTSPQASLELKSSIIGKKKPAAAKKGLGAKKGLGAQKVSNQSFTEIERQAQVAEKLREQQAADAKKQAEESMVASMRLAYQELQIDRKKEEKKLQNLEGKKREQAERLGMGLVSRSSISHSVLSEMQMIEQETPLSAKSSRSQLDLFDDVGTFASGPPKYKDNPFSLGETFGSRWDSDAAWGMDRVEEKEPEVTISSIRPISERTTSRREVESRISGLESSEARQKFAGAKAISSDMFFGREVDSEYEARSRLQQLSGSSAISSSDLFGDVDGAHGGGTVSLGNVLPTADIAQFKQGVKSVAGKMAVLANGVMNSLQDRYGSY

**Q.** “R. norvegicus ArfGAP2, full-length, N-terminally His-tagged (from UniProt Q3MID3 1-520) (enzyme)” was tested. Which share of the leaves in the class with bound ArfGAP2 did it give?
**A.** 65%
